Where “and” joins values, the source holds several entries; their conditions need not be identical. Equal values may be shown once.

The conditions of the series: Salmonella typhimurium (strain LT2 / SGSC1412 / ATCC 700720); pH 7.8; 25 °C; Urea; CD; Potassium phosphate 10 mM; transition: 3; whole UniProt chain shown.

B1: Tryptophan synthase alpha chain wild type, P00929 (protein)
chain: MERYENLFAQLNDRREGAFVPFVTLGDPGIEQSLKIIDTLIDAGADALELGVPFSDPLADGPTIQNANLRAFAAGVTPAQCFEMLALIREKHPTIPIGLLMYANLVFNNGIDAFYARCEQVGVDSVLVADVPVEESAPFRQAALRHNIAPIFICPPNADDDLLRQVASYGRGYTYLLSRSGVTGAENRGALPLHHLIEKLKEYHAAPALQGFGISSPEQVSAAVRAGAAGAISGSAIVKIIEKNLASPKQMLAELRSFVSAMKAASRA
Take B1: the denaturant m value was 2.7 kcal/mol/M and 1.6 kcal/mol/M; the “denaturant midpoint (higher = more stable)” value was 2.75 M and 3.63 M; the unfolding free energy is 7.4 kcal/mol and 5.8 kcal/mol.

These data come from FireProtDB (doi:10.1021/bi00072a011).
